Experimental data from PMC9881158, “The DEAD-box protein Dbp6 is an ATPase and RNA annealase interacting with the peptidyl transferase center (PTC) of the ribosome” (Nucleic Acids Research, 2023).

Assays:
[1] = target: T1, Dbp6 (Saccharomyces cerevisiae, UniProt P53734 1-629); test: EMSA; no nucleotide; EMSA: 1 nM 32P-RNA, RB 1x (composition not in the material), RNasin, 15 min at 30 C, native PAGE in TBE; bridging: 0.8 uM Dbp6, RB 1x, 15 min at 30 C; conditions: protein: recombinant; tags: N-terminal His6; label: 32P
T1 sequence: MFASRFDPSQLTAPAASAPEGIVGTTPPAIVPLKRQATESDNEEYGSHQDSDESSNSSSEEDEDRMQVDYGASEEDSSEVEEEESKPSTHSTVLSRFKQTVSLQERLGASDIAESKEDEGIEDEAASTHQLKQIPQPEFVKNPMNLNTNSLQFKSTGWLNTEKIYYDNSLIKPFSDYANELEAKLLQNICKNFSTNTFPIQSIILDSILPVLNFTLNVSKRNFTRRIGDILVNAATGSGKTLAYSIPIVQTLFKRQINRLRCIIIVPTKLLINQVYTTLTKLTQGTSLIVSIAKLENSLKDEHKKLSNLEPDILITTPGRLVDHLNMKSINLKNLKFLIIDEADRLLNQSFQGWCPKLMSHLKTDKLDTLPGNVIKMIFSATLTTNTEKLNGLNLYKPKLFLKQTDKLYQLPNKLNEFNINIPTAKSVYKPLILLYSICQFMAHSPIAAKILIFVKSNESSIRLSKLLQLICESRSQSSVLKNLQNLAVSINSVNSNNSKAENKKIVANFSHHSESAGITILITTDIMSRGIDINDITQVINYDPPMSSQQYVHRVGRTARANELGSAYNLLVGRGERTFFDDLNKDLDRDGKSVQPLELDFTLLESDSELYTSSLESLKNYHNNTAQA

[2] = target: T2, Dbp6 M-II mutant (motif II, DEAD to DAAD), His6-tagged recombinant, P53734; test: UV cross-linking; conditions: chain shown with the change, no RNA included, parent: est. 0.51, read off a plot
T2 chain: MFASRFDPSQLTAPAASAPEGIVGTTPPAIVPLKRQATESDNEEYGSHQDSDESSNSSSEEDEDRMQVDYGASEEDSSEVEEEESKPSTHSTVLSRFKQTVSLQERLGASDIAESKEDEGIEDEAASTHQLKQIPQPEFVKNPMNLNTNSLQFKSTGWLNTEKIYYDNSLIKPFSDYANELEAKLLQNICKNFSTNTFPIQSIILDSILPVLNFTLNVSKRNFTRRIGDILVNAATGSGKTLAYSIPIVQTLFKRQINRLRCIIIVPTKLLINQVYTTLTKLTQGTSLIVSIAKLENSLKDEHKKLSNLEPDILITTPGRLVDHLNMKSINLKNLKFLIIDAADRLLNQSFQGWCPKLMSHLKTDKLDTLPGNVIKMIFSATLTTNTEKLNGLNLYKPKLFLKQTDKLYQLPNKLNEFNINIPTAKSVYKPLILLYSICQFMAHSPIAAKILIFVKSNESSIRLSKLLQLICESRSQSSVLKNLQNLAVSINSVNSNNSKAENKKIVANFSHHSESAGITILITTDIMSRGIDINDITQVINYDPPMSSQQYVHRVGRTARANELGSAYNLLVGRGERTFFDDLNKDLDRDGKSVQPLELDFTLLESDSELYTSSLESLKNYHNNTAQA

[3] = target: the molecule itself; test: co-IP; immunoprecipitation of Dbp6-ZZ with IgG-sepharose from extracts of a yeast strain expressing HA-Dbp6 and ZZ-tagged Dbp6, in the presence of RNase; western blot
[4] = target: the molecule itself; test: SEC; Superdex 200 gel filtration after HisTrap; GF-ATPase buffer (20 mM Tris–HCl pH 8.0, 100 mM KCl, 10% glycerol, 1 mM DTT, 0.5 mM PMSF); column calibrated with molecular weight standards
[5] = target: the molecule itself; test: cross-linking; purified recombinant Dbp6 (1.5 or 0.8 μM) in RB 1× buffer, 15 min at 20°C, UV 312 nm for 6 min on ice; SDS-PAGE, western blot or silver staining; with or without ATP (1 or 5 μM with labelled ATP; 5 mM) and RNA oligonucleotide
[6] = target: T3, Dbp6 M-I mutant (motif I, GTGKT), His6-tagged recombinant, P53734; test: UV cross-linking; conditions: chain shown with the change, no RNA included, parent: est. 0.51, read off a plot
T3 chain: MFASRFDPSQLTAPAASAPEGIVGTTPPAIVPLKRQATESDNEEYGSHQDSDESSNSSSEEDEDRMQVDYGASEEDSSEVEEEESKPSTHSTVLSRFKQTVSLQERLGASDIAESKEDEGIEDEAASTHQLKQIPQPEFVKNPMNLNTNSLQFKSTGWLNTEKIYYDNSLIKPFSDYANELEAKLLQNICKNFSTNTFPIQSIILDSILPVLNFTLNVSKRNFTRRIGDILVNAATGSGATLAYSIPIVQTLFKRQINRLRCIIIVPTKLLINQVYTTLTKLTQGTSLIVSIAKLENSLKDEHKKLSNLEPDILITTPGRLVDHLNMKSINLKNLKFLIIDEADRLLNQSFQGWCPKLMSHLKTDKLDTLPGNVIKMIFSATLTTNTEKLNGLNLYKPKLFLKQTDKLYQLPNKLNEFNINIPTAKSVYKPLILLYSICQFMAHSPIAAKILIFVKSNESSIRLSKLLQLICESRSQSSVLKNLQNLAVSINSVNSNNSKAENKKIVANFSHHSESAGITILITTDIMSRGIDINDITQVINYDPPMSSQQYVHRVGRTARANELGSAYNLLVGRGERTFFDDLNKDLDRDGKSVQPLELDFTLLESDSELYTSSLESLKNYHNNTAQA

[7] = target: T1, Dbp6; test: EMSA; Dbp6 up to 1.2 uM; EMSA: 1 nM 32P-RNA, RB 1x (composition not in the material), RNasin, 15 min at 30 C, native PAGE in TBE; bridging: 0.8 uM Dbp6, RB 1x, 15 min at 30 C; conditions: protein: recombinant; tags: N-terminal His6; label: 32P

CAGAACCGCUACACUGAAAUGAUCAAUUCCGGUCUCCC (ssRNA) [ss38-mer]
binding result [1]: binds

B1: recombinant His6-Dbp6, P53734 M-II: E to A in motif II (DEAD to DAAD) (protein)
chain: MFASRFDPSQLTAPAASAPEGIVGTTPPAIVPLKRQATESDNEEYGSHQDSDESSNSSSEEDEDRMQVDYGASEEDSSEVEEEESKPSTHSTVLSRFKQTVSLQERLGASDIAESKEDEGIEDEAASTHQLKQIPQPEFVKNPMNLNTNSLQFKSTGWLNTEKIYYDNSLIKPFSDYANELEAKLLQNICKNFSTNTFPIQSIILDSILPVLNFTLNVSKRNFTRRIGDILVNAATGSGKTLAYSIPIVQTLFKRQINRLRCIIIVPTKLLINQVYTTLTKLTQGTSLIVSIAKLENSLKDEHKKLSNLEPDILITTPGRLVDHLNMKSINLKNLKFLIIDAADRLLNQSFQGWCPKLMSHLKTDKLDTLPGNVIKMIFSATLTTNTEKLNGLNLYKPKLFLKQTDKLYQLPNKLNEFNINIPTAKSVYKPLILLYSICQFMAHSPIAAKILIFVKSNESSIRLSKLLQLICESRSQSSVLKNLQNLAVSINSVNSNNSKAENKKIVANFSHHSESAGITILITTDIMSRGIDINDITQVINYDPPMSSQQYVHRVGRTARANELGSAYNLLVGRGERTFFDDLNKDLDRDGKSVQPLELDFTLLESDSELYTSSLESLKNYHNNTAQA
other: quantity of oligomers with ATP, relative to without ATP (set at 1) [2]: 0.96

B2: Dbp6 expressed in yeast as HA-Dbp6 and as Dbp6-ZZ (enzyme, S. cerevisiae, UniProt P53734 1-629, looked up)
chain: MFASRFDPSQLTAPAASAPEGIVGTTPPAIVPLKRQATESDNEEYGSHQDSDESSNSSSEEDEDRMQVDYGASEEDSSEVEEEESKPSTHSTVLSRFKQTVSLQERLGASDIAESKEDEGIEDEAASTHQLKQIPQPEFVKNPMNLNTNSLQFKSTGWLNTEKIYYDNSLIKPFSDYANELEAKLLQNICKNFSTNTFPIQSIILDSILPVLNFTLNVSKRNFTRRIGDILVNAATGSGKTLAYSIPIVQTLFKRQINRLRCIIIVPTKLLINQVYTTLTKLTQGTSLIVSIAKLENSLKDEHKKLSNLEPDILITTPGRLVDHLNMKSINLKNLKFLIIDEADRLLNQSFQGWCPKLMSHLKTDKLDTLPGNVIKMIFSATLTTNTEKLNGLNLYKPKLFLKQTDKLYQLPNKLNEFNINIPTAKSVYKPLILLYSICQFMAHSPIAAKILIFVKSNESSIRLSKLLQLICESRSQSSVLKNLQNLAVSINSVNSNNSKAENKKIVANFSHHSESAGITILITTDIMSRGIDINDITQVINYDPPMSSQQYVHRVGRTARANELGSAYNLLVGRGERTFFDDLNKDLDRDGKSVQPLELDFTLLESDSELYTSSLESLKNYHNNTAQA
notes: DEAD-box protein Dbp6 of yeast (S. cerevisiae); HA-tagged ORF under the GAL1-10 promoter and wild-type DBP6 cassette in pHA113 between a GAR1 promoter and a ZZ tag; also called ZZ-tagged Dbp6; GAL::HA-DBP6; source: yeast strain expressing HA-Dbp6 as well as ZZ-tagged Dbp6, in extract
fold enrichment over background [3]: ~2 fold

B3: recombinant His6-Dbp6 (enzyme, S. cerevisiae, UniProt P53734 1-629, looked up)
chain: MFASRFDPSQLTAPAASAPEGIVGTTPPAIVPLKRQATESDNEEYGSHQDSDESSNSSSEEDEDRMQVDYGASEEDSSEVEEEESKPSTHSTVLSRFKQTVSLQERLGASDIAESKEDEGIEDEAASTHQLKQIPQPEFVKNPMNLNTNSLQFKSTGWLNTEKIYYDNSLIKPFSDYANELEAKLLQNICKNFSTNTFPIQSIILDSILPVLNFTLNVSKRNFTRRIGDILVNAATGSGKTLAYSIPIVQTLFKRQINRLRCIIIVPTKLLINQVYTTLTKLTQGTSLIVSIAKLENSLKDEHKKLSNLEPDILITTPGRLVDHLNMKSINLKNLKFLIIDEADRLLNQSFQGWCPKLMSHLKTDKLDTLPGNVIKMIFSATLTTNTEKLNGLNLYKPKLFLKQTDKLYQLPNKLNEFNINIPTAKSVYKPLILLYSICQFMAHSPIAAKILIFVKSNESSIRLSKLLQLICESRSQSSVLKNLQNLAVSINSVNSNNSKAENKKIVANFSHHSESAGITILITTDIMSRGIDINDITQVINYDPPMSSQQYVHRVGRTARANELGSAYNLLVGRGERTFFDDLNKDLDRDGKSVQPLELDFTLLESDSELYTSSLESLKNYHNNTAQA
notes: DEAD-box protein Dbp6 of yeast (S. cerevisiae), DBP6 ORF cloned downstream of a His tag in modified pET-15b; His6-Dbp6 ca. 73 kDa; SEC fractions also hold some truncated fragments of Dbp6; fraction F17 was used for the in vitro assays; also called WT Dbp6; wild-type Dbp6; source: E. coli Rosetta λDE3, purified (HisTrap FF, Superdex 200); not shown: His6, N-terminal, kept
stoichiometry N [4]: 2
fold reduction of oligomerization with 5 mM ATP against no ATP [5]: ~2 fold

B4: recombinant His6-Dbp6, P53734 M-I: K to A in motif I (GTGKT) (protein)
chain: MFASRFDPSQLTAPAASAPEGIVGTTPPAIVPLKRQATESDNEEYGSHQDSDESSNSSSEEDEDRMQVDYGASEEDSSEVEEEESKPSTHSTVLSRFKQTVSLQERLGASDIAESKEDEGIEDEAASTHQLKQIPQPEFVKNPMNLNTNSLQFKSTGWLNTEKIYYDNSLIKPFSDYANELEAKLLQNICKNFSTNTFPIQSIILDSILPVLNFTLNVSKRNFTRRIGDILVNAATGSGATLAYSIPIVQTLFKRQINRLRCIIIVPTKLLINQVYTTLTKLTQGTSLIVSIAKLENSLKDEHKKLSNLEPDILITTPGRLVDHLNMKSINLKNLKFLIIDEADRLLNQSFQGWCPKLMSHLKTDKLDTLPGNVIKMIFSATLTTNTEKLNGLNLYKPKLFLKQTDKLYQLPNKLNEFNINIPTAKSVYKPLILLYSICQFMAHSPIAAKILIFVKSNESSIRLSKLLQLICESRSQSSVLKNLQNLAVSINSVNSNNSKAENKKIVANFSHHSESAGITILITTDIMSRGIDINDITQVINYDPPMSSQQYVHRVGRTARANELGSAYNLLVGRGERTFFDDLNKDLDRDGKSVQPLELDFTLLESDSELYTSSLESLKNYHNNTAQA
other: quantity of oligomers with ATP, relative to without ATP (set at 1) [6]: 0.97

B5: Dbp6 ΔN mutant (lacking the N-terminal D/E-rich sequence, residues 24–128), His6-tagged recombinant (enzyme, S. cerevisiae, UniProt P53734 1-629, looked up)
chain: MFASRFDPSQLTAPAASAPEGIVHQLKQIPQPEFVKNPMNLNTNSLQFKSTGWLNTEKIYYDNSLIKPFSDYANELEAKLLQNICKNFSTNTFPIQSIILDSILPVLNFTLNVSKRNFTRRIGDILVNAATGSGKTLAYSIPIVQTLFKRQINRLRCIIIVPTKLLINQVYTTLTKLTQGTSLIVSIAKLENSLKDEHKKLSNLEPDILITTPGRLVDHLNMKSINLKNLKFLIIDEADRLLNQSFQGWCPKLMSHLKTDKLDTLPGNVIKMIFSATLTTNTEKLNGLNLYKPKLFLKQTDKLYQLPNKLNEFNINIPTAKSVYKPLILLYSICQFMAHSPIAAKILIFVKSNESSIRLSKLLQLICESRSQSSVLKNLQNLAVSINSVNSNNSKAENKKIVANFSHHSESAGITILITTDIMSRGIDINDITQVINYDPPMSSQQYVHRVGRTARANELGSAYNLLVGRGERTFFDDLNKDLDRDGKSVQPLELDFTLLESDSELYTSSLESLKNYHNNTAQA
notes: made from pET-Dbp6; also called pET-ΔN; source: E. coli Rosetta λDE3, purified (HisTrap FF, Superdex 200)
binding result [4]: binds

GGGAGACCGGAAUUCAUCAUU (ssRNA) [ss21-mer]
binding result [7]: no binding
